One may read the Km as the substrate concentration at which the rate is half of its maximum. One may read the kcat as the number of substrate molecules converted per active site and unit of time at saturation. In general, kcat/Km refers to the turnover number divided by the Michaelis constant.

We go through two compounds from article PMC4752478, “Probing the Catalytic Mechanism of Vibrio harveyi GH20 β-N-Acetylglucosaminidase by Chemical Rescue” (PLoS ONE, 2016).

Counter-ions that a name gives are not always drawn.

The target in one data set is T1, VhGlcNAcase (Vibrio harveyi, UniProt D9ISE0).
T1 sequence (D9ISE0 1-642): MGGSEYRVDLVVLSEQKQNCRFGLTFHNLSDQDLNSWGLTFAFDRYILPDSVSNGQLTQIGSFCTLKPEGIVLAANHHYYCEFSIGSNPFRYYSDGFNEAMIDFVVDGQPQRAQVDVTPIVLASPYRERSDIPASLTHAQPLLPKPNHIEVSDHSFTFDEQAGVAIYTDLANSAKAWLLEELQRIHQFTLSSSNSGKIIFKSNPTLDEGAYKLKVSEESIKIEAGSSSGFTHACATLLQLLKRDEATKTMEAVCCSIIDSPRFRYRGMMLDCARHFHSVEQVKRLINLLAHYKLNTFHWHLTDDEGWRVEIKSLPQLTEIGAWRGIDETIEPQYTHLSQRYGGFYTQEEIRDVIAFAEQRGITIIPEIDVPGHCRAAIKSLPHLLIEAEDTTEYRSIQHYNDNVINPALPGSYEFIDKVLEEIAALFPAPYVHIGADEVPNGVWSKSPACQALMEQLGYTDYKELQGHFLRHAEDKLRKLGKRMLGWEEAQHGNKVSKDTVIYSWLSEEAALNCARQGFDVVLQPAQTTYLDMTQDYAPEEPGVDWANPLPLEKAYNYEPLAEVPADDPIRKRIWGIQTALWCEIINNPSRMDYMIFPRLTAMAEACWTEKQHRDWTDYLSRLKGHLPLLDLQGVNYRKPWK
Kind of data set: biochemical. As to conditions: read-out: Specific activity (nmol/min/μg) / 1 M HCOONa.

In data set [1] the test system is CC(=O)N[C@H]1[C@H](Oc2ccc([N+](=O)[O-])cc2)O[C@H](CO)[C@@H](O)[C@@H]1O. Briefly: purified protein. As to conditions: no sodium formate, 100 mM sodium phosphate pH 7.0, 37°C.

With `O=CO` [sodium formate], the activity at 1 M on VhGlcNAcase worked out at 80%.
For VhGlcNAcase (Vibrio harveyi; D437A), in data set [1], the Km was found to be 390 ± 32 µM, the kcat was found to be 0.14 ± 0.01 s⁻¹ and the kcat/Km came to 360 M⁻¹ s⁻¹.
